In patent US20210347913A1 (CRISPR THERAPEUTICS, published 2021):
Changes are numbered by the printed parent chain. Names and notes keep the numbering of the source.

T1: PTK7 on PTK7 positive cell line SaOS-2 (osteosarcoma) (UniProt Q13308 31-1070, limits assumed)
T1 sequence (looked up): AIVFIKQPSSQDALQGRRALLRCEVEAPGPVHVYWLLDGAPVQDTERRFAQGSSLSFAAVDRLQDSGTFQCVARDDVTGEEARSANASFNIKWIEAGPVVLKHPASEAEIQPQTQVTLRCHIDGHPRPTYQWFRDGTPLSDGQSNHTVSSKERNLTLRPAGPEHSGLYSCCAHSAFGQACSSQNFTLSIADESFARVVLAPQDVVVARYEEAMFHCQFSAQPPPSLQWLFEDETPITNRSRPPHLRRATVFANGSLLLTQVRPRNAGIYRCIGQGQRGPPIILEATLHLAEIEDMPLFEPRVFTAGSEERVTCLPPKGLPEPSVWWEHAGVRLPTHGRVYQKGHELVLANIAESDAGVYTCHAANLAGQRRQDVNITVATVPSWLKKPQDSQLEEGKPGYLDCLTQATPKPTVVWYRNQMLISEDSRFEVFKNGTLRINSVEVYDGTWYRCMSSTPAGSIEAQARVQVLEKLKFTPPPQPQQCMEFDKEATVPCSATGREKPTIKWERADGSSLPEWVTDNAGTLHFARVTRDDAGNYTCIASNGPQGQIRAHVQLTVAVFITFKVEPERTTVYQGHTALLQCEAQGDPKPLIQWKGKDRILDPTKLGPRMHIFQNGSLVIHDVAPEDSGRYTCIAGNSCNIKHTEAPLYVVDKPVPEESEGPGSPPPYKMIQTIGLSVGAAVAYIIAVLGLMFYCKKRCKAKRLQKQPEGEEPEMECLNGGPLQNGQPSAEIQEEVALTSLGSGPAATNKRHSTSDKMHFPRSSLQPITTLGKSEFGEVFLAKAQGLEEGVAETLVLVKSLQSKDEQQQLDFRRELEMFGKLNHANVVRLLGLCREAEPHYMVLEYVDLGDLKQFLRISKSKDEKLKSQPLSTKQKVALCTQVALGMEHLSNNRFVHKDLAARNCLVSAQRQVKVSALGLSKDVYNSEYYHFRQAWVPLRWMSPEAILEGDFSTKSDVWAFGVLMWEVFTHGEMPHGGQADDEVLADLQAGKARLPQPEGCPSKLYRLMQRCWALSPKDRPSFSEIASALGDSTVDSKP

T2: recombinant human PTK7.Fc (R and D Systems, catalog #9799-TK) (human, UniProt Q13308 31-704, limits assumed)
T2 construct: Bought reagent; also called soluble recombinant human PTK7.Fc; soluble antigen PTK7; not shown: Fc part of the bought fusion (detected with anti-human Fc)
T2 sequence (looked up): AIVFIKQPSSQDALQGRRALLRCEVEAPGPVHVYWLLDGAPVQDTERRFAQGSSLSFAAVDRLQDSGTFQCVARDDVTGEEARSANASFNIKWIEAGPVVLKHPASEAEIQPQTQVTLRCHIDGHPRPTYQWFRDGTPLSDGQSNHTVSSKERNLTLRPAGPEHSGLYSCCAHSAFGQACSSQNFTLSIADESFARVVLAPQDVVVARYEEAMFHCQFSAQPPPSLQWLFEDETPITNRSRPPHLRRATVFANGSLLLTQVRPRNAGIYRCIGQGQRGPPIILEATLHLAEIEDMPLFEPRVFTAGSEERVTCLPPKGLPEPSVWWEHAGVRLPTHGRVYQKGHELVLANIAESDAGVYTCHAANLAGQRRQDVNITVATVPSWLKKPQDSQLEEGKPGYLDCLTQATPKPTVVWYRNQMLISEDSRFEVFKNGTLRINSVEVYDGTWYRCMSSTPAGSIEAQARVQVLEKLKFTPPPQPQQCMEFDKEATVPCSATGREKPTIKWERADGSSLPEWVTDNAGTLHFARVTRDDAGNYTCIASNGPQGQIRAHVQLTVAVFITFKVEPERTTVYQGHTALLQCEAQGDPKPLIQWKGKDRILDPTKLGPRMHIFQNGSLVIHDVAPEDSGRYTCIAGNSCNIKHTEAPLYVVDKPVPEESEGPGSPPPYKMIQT

B1: mask peptide P2 (peptide)
peptide: HEEVHMRPNKLSLTWAYTGPQLR
notes: Found by phage display (Screen 1); fused through a cleavable linker in the masked constructs
B2: CTX181.M10 (other)
chain: QGCYIGLRMVPCFHMGSSGGSGGSGGSGGGPLGLAGGSSGQVQLVESGGGVVQPGRSLRLSCAASGFTFSSYGMHWVRQAPGKGLEWVAVIWDDGSNKYYVDSVKGRFTISRDNSKNTLYLQMNSLRAEDTAVYYCARDDYYGSGSFNSYYGTDVWGQGTTVTVSSGGGGSGGGGSGGGGSEIVLTQSPATLSLSPGERATLSCRASQSVSIYLAWYQQKPGQAPRLLIYDASNRATGIPARFSGSGSGTDFTLTISSLEPEDFAVYYCQQRSNWPPFTFGPGTKVDIKSAAAFVPVFLPAKPTTTPAPRPPTPAPTIASQPLSLRPEACRPAAGGAVHTRGLDFACDIYIWAPLAGTCGVLLLSLVITLYCNHRNRSKRSRLLHSDYMNMTPRRPGPTRKHYQPYAPPRDFAAYRSRVKFSRSADAPAYQQGQNQLYNELNLGRREEYDVLDKRRGRDPEMGGKPRRKNPQEGLYNELQKDKMAEAYSEIGMKGERRRGKGHDGLYQGLSTATKDTYDALHMQALPPR
notes: Masked chimeric antigen receptor on the surface of TRAC-/B2M- human T cells; entry without signal peptide
B3: CTX181.M13 (other)
chain: QGCTYPPRFHMHWLCGSSGGSGGSGGSGGGPLGLAGGSSGQVQLVESGGGVVQPGRSLRLSCAASGFTFSSYGMHWVRQAPGKGLEWVAVIWDDGSNKYYVDSVKGRFTISRDNSKNTLYLQMNSLRAEDTAVYYCARDDYYGSGSFNSYYGTDVWGQGTTVTVSSGGGGSGGGGSGGGGSEIVLTQSPATLSLSPGERATLSCRASQSVSIYLAWYQQKPGQAPRLLIYDASNRATGIPARFSGSGSGTDFTLTISSLEPEDFAVYYCQQRSNWPPFTFGPGTKVDIKSAAAFVPVFLPAKPTTTPAPRPPTPAPTIASQPLSLRPEACRPAAGGAVHTRGLDFACDIYIWAPLAGTCGVLLLSLVITLYCNHRNRSKRSRLLHSDYMNMTPRRPGPTRKHYQPYAPPRDFAAYRSRVKFSRSADAPAYQQGQNQLYNELNLGRREEYDVLDKRRGRDPEMGGKPRRKNPQEGLYNELQKDKMAEAYSEIGMKGERRRGKGHDGLYQGLSTATKDTYDALHMQALPPR
notes: as for B2
B4: CTX181.M14 (other)
chain: B3 chain with Y5H, P6V, P7A, R8Q, F9W, H10A, M11I, H12K, W13A, L14F
notes: as for B2
B5: CTX181.M11 (other)
chain: B3 chain with Y5M, P7S, R8H, F9A, H10V, M11A, H12S, W13F
notes: as for B2
B6: CTX181.P1 (other)
chain: EVAPGKRWFYNHVKQVPHLVGSSGGSGGSGGSGGGPLGLAGGSSGQVQLVESGGGVVQPGRSLRLSCAASGFTFSSYGMHWVRQAPGKGLEWVAVIWDDGSNKYYVDSVKGRFTISRDNSKNTLYLQMNSLRAEDTAVYYCARDDYYGSGSFNSYYGTDVWGQGTTVTVSSGGGGSGGGGSGGGGSEIVLTQSPATLSLSPGERATLSCRASQSVSIYLAWYQQKPGQAPRLLIYDASNRATGIPARFSGSGSGTDFTLTISSLEPEDFAVYYCQQRSNWPPFTFGPGTKVDIKSAAAFVPVFLPAKPTTTPAPRPPTPAPTIASQPLSLRPEACRPAAGGAVHTRGLDFACDIYIWAPLAGTCGVLLLSLVITLYCNHRNRKRGRKKLLYIFKQPFMRPVQTTQEEDGCSCRFPEEEEGGCELRVKFSRSADAPAYQQGQNQLYNELNLGRREEYDVLDKRRGRDPEMGGKPRRKNPQEGLYNELQKDKMAEAYSEIGMKGERRRGKGHDGLYQGLSTATKDTYDALHMQALPPR
notes: Masked chimeric antigen receptor on the surface of TRAC-/B2M- human T cells; entry without signal peptide; also called masked anti-PTK7 CAR P1

Molecular target: T3, anti-PTK7 antibody Ab181
T3 construct: Unmasked parent IgG1kappa; also called Ab181 IgG1kappa
Assay: phage display selection of peptide binders of Ab181 (Screen 1, X15/X19 library)

Row | Binder | binding result
1 | EVAPGKRWFYNHVKQVPHLV (Found by phage display (Screen 1)) [mask peptide P1] | binds
2 | B1 | binds

Molecular target: T1, PTK7 on PTK7 positive cell line SaOS-2 …
Assay: cell-based or functional assay

Row | Binder | IFNγ (pg/mL) at E:T = 1:0.5 | IFNγ (pg/mL) at E:T = 1:1
3 | B2 | 2110 pg/mL | 1880 pg/mL
4 | B3 | 4860 pg/mL | 6170 pg/mL
5 | B4 | 1760 pg/mL | 1930 pg/mL
6 | B5 | 884 pg/mL | 887 pg/mL
7 | B6 | 13600 pg/mL | 20500 pg/mL

Molecular target: T1, PTK7 on PTK7 positive cell line SaOS-2 …
Assay: cell-based or functional assay
Remark: another data set of the same source

Row | Binder | % Cell killing at E:T = 1:0.5 | % Cell killing at E:T = 1:1
8 | B2 | 32.7% | 25.8%
9 | B3 | 68.6% | 41.3%
10 | B4 | 52.8% | 29.5%
11 | B5 | 20.1% | 12.7%
12 | B6 | 92.7% | 79.1%

Molecular target: T2, recombinant human PTK7.Fc (R and D …)
Assay: flow cytometry, percent of CAR T cells positive for 10 ug/mL PTK7.Fc
Procedure: In addition to detecting surface CAR expression, the ability of the CAR T cells and masked CAR T cells to detect target antigen was also determined. Live CAR T cells were gated by their forward scatter (FSC) and side scatter (SSC) profiles, and with DAPI dye (Invitrogen, catalog #: D3571). The cells were then stained with 10 μg/mL recombinant human PTK7.Fc (R and D Systems, catalog #9799-TK Lot DHMCO219041) as described above in Example 3, and with mouse anti-human.Fc conjugated to APC (Biolegend cat #409305) as secondary antibody for detection (FIG. 3).

Row | Binder | % Antigen detection
13 | B2 | 28%
14 | B3 | 37.5%
15 | B4 | 36.2%
16 | B5 | 30.3%
17 | B6 | 42.7%
